± gives the uncertainty stated by the source.
B1: Pituitary-specific positive transcription factor 1, residues 130 to 198; numbered along this chain, P28069 (parent)
chain: RELEKFANEFKVRRIKLGYTQTNVGEALAAVHGSEFSQTTICRFENLQLSFKNACKLKAILSKWLEEAE

Variants of: B1
Assay: abundance fitness (aPCA) (normalised: wild type 0, dead -1); higher = more abundant; growth selection in yeast, the domain comes from the species named
Conditions: Homo sapiens
In the case of K52H, the abundance fitness is reported as 0.018 ± 0.21.
For K52S, the abundance fitness was -0.002 ± 0.076.
For K52Y, the abundance fitness was 0.057 ± 0.11.
In the case of K52A, the abundance fitness is reported as 0.002 ± 0.046.
K52G gave an abundance fitness of -0.149 ± 0.05.
In the case of K52T, the abundance fitness is reported as 0.036 ± 0.11.
With K52D the abundance fitness was 0.075 ± 0.072.
K52Q showed an abundance fitness of 0.022 ± 0.098.
K52E showed an abundance fitness of 0.108 ± 0.086.
Variant K52N has an abundance fitness of -0.024 ± 0.058.
With K52V the abundance fitness was 0.073 ± 0.077.
For K52C, the abundance fitness was -0.753 ± 0.49.
For K52W, the abundance fitness was -0.408 ± 0.11.
Work on K52P yielded an abundance fitness of -0.077 ± 0.093.
Variant K52R has an abundance fitness of -0.04 ± 0.061.
In the case of K52L, the abundance fitness is reported as -0.369 ± 0.068.
In the case of K52I, the abundance fitness is reported as -0.463 ± 0.27.
Variant K56C has an abundance fitness of -0.505 ± 0.098.
K56G gave an abundance fitness of -0.341 ± 0.054.
Variant K56W has an abundance fitness of -0.533 ± 0.085.
Work on K56V yielded an abundance fitness of -0.135 ± 0.069.
K56S showed an abundance fitness of -0.23 ± 0.049.
With K56Q the abundance fitness was -0.074 ± 0.067.
K56A gave an abundance fitness of -0.226 ± 0.064.
For K56P, the abundance fitness was -0.626 ± 0.082.
In the case of K56H, the abundance fitness is reported as -0.34 ± 0.095.
K56F showed an abundance fitness of -0.554 ± 0.12.
K56D showed an abundance fitness of -0.366 ± 0.1.
Variant K56R has an abundance fitness of 0.005 ± 0.038.
Work on K56L yielded an abundance fitness of -0.466 ± 0.077.
With K56N the abundance fitness was -0.131 ± 0.11.
Variant K56T has an abundance fitness of -0.307 ± 0.067.
K56E showed an abundance fitness of -0.132 ± 0.056.
K56M gave an abundance fitness of -0.268 ± 0.05.
Work on L47W yielded an abundance fitness of -0.789 ± 0.22.
L47Y showed an abundance fitness of -0.428 ± 0.094.
For N53C, the abundance fitness was -0.013 ± 0.086.
N53A gave an abundance fitness of 0.107 ± 0.049.
Work on N53Q yielded an abundance fitness of 0 ± 0.084.
Variant N53I has an abundance fitness of -0.027 ± 0.092.
N53T showed an abundance fitness of 0.131 ± 0.037.
With N53K the abundance fitness was 0.21 ± 0.077.
Variant N53G has an abundance fitness of -0.087 ± 0.074.
Variant N53V has an abundance fitness of 0.122 ± 0.069.
N53S gave an abundance fitness of 0.115 ± 0.057.
Variant N53H has an abundance fitness of 0.233 ± 0.059.
With N53P the abundance fitness was -0.115 ± 0.055.
With N53R the abundance fitness was 0.206 ± 0.055.
With N53E the abundance fitness was 0.355 ± 0.077.
For N53M, the abundance fitness was 0.058 ± 0.11.
In the case of N53W, the abundance fitness is reported as -0.271 ± 0.1.
For N53L, the abundance fitness was -0.001 ± 0.049.
For L57S, the abundance fitness was -0.534 ± 0.08.
For L57F, the abundance fitness was -0.126 ± 0.077.
With L57I the abundance fitness was 0.013 ± 0.06.
Variant L57K has an abundance fitness of -0.497 ± 0.16.
L57R showed an abundance fitness of -0.584 ± 0.079.
In the case of L57V, the abundance fitness is reported as 0.063 ± 0.038.
L57E showed an abundance fitness of -0.345 ± 0.12.
With L57T the abundance fitness was -0.262 ± 0.064.
L57P showed an abundance fitness of -0.89 ± 0.3.
For L57G, the abundance fitness was -0.507 ± 0.061.
With L57W the abundance fitness was -0.642 ± 0.18.
Variant L57H has an abundance fitness of -0.226 ± 0.11.
For L57N, the abundance fitness was -0.72 ± 0.12.
Variant L57D has an abundance fitness of -0.67 ± 0.1.
L57C showed an abundance fitness of -0.228 ± 0.086.
Work on L57A yielded an abundance fitness of -0.449 ± 0.064.
L57M gave an abundance fitness of 0.285 ± 0.11.
Variant S50C has an abundance fitness of -0.459 ± 0.12.
In the case of S50K, the abundance fitness is reported as -0.182 ± 0.2.
With S50F the abundance fitness was -0.724 ± 0.31.
S50V gave an abundance fitness of -0.877 ± 0.15.
With S50M the abundance fitness was -0.766 ± 0.23.
Work on S50D yielded an abundance fitness of 0.162 ± 0.093.
In the case of S50N, the abundance fitness is reported as 0.022 ± 0.092.
In the case of S50T, the abundance fitness is reported as -0.206 ± 0.082.
In the case of S50R, the abundance fitness is reported as -0.348 ± 0.059.
For S50G, the abundance fitness was 0.035 ± 0.042.
For S50Y, the abundance fitness was -0.822 ± 0.29.
Variant S50I has an abundance fitness of -0.378 ± 0.36.
Work on S50A yielded an abundance fitness of -0.307 ± 0.051.
Variant S50W has an abundance fitness of -0.126 ± 0.092.
S50L gave an abundance fitness of -0.57 ± 0.087.
With S50H the abundance fitness was -0.168 ± 0.14.
Work on S50Q yielded an abundance fitness of -0.533 ± 0.3.
C55N showed an abundance fitness of -0.201 ± 0.11.
Variant C55S has an abundance fitness of 0.024 ± 0.062.
C55R showed an abundance fitness of -0.294 ± 0.094.
Work on C55E yielded an abundance fitness of -0.07 ± 0.067.
C55A gave an abundance fitness of -0.207 ± 0.1.
Variant C55L has an abundance fitness of 0.121 ± 0.055.
C55Y showed an abundance fitness of 0.012 ± 0.08.
Work on C55K yielded an abundance fitness of -0.153 ± 0.1.
C55V gave an abundance fitness of 0.15 ± 0.039.
In the case of C55G, the abundance fitness is reported as -0.395 ± 0.062.
Work on C55W yielded an abundance fitness of -0.14 ± 0.12.
In the case of C55H, the abundance fitness is reported as -0.099 ± 0.18.
C55T gave an abundance fitness of -0.098 ± 0.13.
In the case of C55D, the abundance fitness is reported as 0.188 ± 0.34.
Variant C55M has an abundance fitness of 0.145 ± 0.13.
Work on C55I yielded an abundance fitness of 0.046 ± 0.12.
Work on Q48R yielded an abundance fitness of -0.331 ± 0.088.
In the case of Q48A, the abundance fitness is reported as -0.629 ± 0.16.
Variant Q48M has an abundance fitness of -0.505 ± 0.27.
With Q48V the abundance fitness was -0.574 ± 0.081.
Q48Y showed an abundance fitness of -0.79 ± 0.41.
Work on Q48K yielded an abundance fitness of -0.476 ± 0.18.
In the case of Q48C, the abundance fitness is reported as -0.586 ± 0.12.
For Q48W, the abundance fitness was -0.915 ± 0.36.
In the case of Q48P, the abundance fitness is reported as -0.506 ± 0.21.
In the case of Q48S, the abundance fitness is reported as -0.389 ± 0.094.
For Q48G, the abundance fitness was -0.673 ± 0.088.
In the case of Q48H, the abundance fitness is reported as -0.66 ± 0.2.
Q48D gave an abundance fitness of -0.055 ± 0.066.
With Q48E the abundance fitness was -0.003 ± 0.07.
Variant Q48L has an abundance fitness of -0.406 ± 0.065.
Work on Q48T yielded an abundance fitness of -0.177 ± 0.11.
With Q48F the abundance fitness was -0.889 ± 0.4.
Q48I showed an abundance fitness of -0.758 ± 0.23.
L49Q gave an abundance fitness of -0.749 ± 0.19.
L49P showed an abundance fitness of -0.687 ± 0.35.
For L49M, the abundance fitness was 0.106 ± 0.084.
L49R gave an abundance fitness of -0.862 ± 0.12.
Work on L49V yielded an abundance fitness of -0.323 ± 0.055.
L49D showed an abundance fitness of -0.847 ± 0.31.
Work on L49G yielded an abundance fitness of -0.632 ± 0.11.
L49I showed an abundance fitness of -0.262 ± 0.064.
In the case of L49N, the abundance fitness is reported as -0.818 ± 0.21.
For L49C, the abundance fitness was -0.208 ± 0.067.
In the case of L49A, the abundance fitness is reported as -0.964 ± 0.19.
With L49Y the abundance fitness was -0.477 ± 0.087.
L49S showed an abundance fitness of -0.568 ± 0.079.
L49W showed an abundance fitness of -1.15 ± 0.43.
L49H showed an abundance fitness of -0.721 ± 0.18.
Variant L49F has an abundance fitness of -0.149 ± 0.1.
For L49E, the abundance fitness was -0.616 ± 0.14.
In the case of F51M, the abundance fitness is reported as -0.156 ± 0.13.
With F51N the abundance fitness was -0.342 ± 0.17.
F51I showed an abundance fitness of -0.1 ± 0.069.
In the case of F51G, the abundance fitness is reported as -0.39 ± 0.15.
F51E gave an abundance fitness of 0.144 ± 0.13.
In the case of F51R, the abundance fitness is reported as -0.161 ± 0.041.
In the case of F51Q, the abundance fitness is reported as -0.061 ± 0.1.
With F51Y the abundance fitness was 0.034 ± 0.06.
Work on F51K yielded an abundance fitness of -0.11 ± 0.071.
In the case of F51A, the abundance fitness is reported as -0.174 ± 0.099.
Work on F51V yielded an abundance fitness of 0.021 ± 0.057.
With F51P the abundance fitness was -0.142 ± 0.078.
Work on F51D yielded an abundance fitness of -0.001 ± 0.1.
F51S gave an abundance fitness of -0.189 ± 0.047.
Variant F51H has an abundance fitness of 0.077 ± 0.095.
Variant F51L has an abundance fitness of -0.19 ± 0.063.
F51T showed an abundance fitness of -0.07 ± 0.14.
Variant F51W has an abundance fitness of -0.042 ± 0.16.
Work on F51C yielded an abundance fitness of -0.534 ± 0.13.
With A54V the abundance fitness was -0.756 ± 0.42.
For A54S, the abundance fitness was 0.06 ± 0.13.
A54G showed an abundance fitness of -0.295 ± 0.18.
Variant A54M has an abundance fitness of 0.358 ± 0.08.
For A54Y, the abundance fitness was -0.333 ± 0.16.
With A54C the abundance fitness was -0.382 ± 0.33.
Variant A54W has an abundance fitness of -0.302 ± 0.14.
A54L gave an abundance fitness of -0.033 ± 0.12.
With A54R the abundance fitness was -0.974 ± 0.37.
For A54Q, the abundance fitness was -0.473 ± 0.18.
Work on A54F yielded an abundance fitness of -0.131 ± 0.19.

Source: the Human Domainome abundance scans (Beltran et al. 2025)
